# pKd: −log10 of the molar value.
# Target: HLA-A*02:01
# Test: IEDB peptide-MHC binding, purified MHC/competitive/radioactivity; filed as Kd, often an IC50 or EC50 that approximates it; ≥ and ≤ were set here for values at or beyond the usual limits of such assays
# Conditions: source organism: Mycobacterium tuberculosis
row,Sequence,pKd
1,LMLPGMNGI,6.62
2,AVHDTLFYCV,6.98
3,LALVLLMLPV,6.48
4,FLMPVEDVFI,8.48
5,SLAGFVRML,6.95
6,FMSLAGFVRM,6.93
7,RMSRVTTFTV,7.12
8,SLYFGGICVI,6.78
9,LLGSFELTGI,7.59
10,LLAAGVADPV,6.66
11,YTYKWETFL,7.54
12,FLTCDANLAV,6.98
13,ALLSDWLPA,7.03
14,GLGGLGLFFA,7.05
15,LLACAVIHA,6.60
16,YLYVHSPAL,8.27
17,GLFLTTEAVV,6.62
18,AIAWGAWGEV,6.51
19,LLLETSWEAI,6.97
20,ALYLLDGLRA,6.58
21,GLYYLTTEV,7.68
22,YLSQIAVLL,7.92
23,GLMTAVYLV,8.05
24,WMAETTLGRV,6.53

row,Sequence,pKd
1,SLLEIGEGV,7.01
2,RLQPQVGWEV,6.75
3,FLLPDAQSI,6.41
4,LLATVFKLTA,6.60
5,FVVALIPLV,8.12
6,MLATDLSLRV,6.96
7,KIFMLVTAVV,6.38
8,RLLDDTPEV,7.02
9,MTYAAPLFV,7.86
10,GLAGTVLRFV,6.96
11,LLCCSGVATA,6.82
12,MLGNAPSVV,6.64
13,TVLRFVPPL,7.11
14,LLPLGYPFV,6.48
15,ALVLLMLPVV,8.17
16,RIANGMGATV,6.41
17,RLMIGTAAA,6.64
18,LLFRFMRPL,7.45
19,MLQDMAILT,6.78
20,VLLLDVTPL,7.30
21,FLLADERVRV,6.93
22,AMLQDMAIL,7.01
23,AMALLRLPLV,8.29
24,ATYDKGILTV,6.81

row,Sequence,pKd
1,GLYGAQYDV,6.60
2,SLLEIGEGVV,7.30
3,AMKADIQHV,6.78
4,MALLRLPLV,7.28
5,GIVSGILLSI,6.82
6,SLYFGGICV,7.97
7,YLLALRYLA,8.00
8,KLTADGVLTA,6.70
9,YLSEGDMAA,6.53
10,ILSSLGLPV,7.30
11,AIYHPQQFV,6.50
12,VLLEDGGVEV,6.48
13,GLYRQWALA,6.73
14,GLVDFVKHI,6.66
15,MLASTLTDA,6.60
16,LLFLGVVFL,7.30
17,LLWQDPVPA,7.34
18,RMPAVTDLV,6.90
19,ILLSIARVV,6.34
20,LLFRFMRPLI,7.08
21,LLLDVTPLSL,7.77
22,LMIGTAAAVV,7.27
23,WLLIDTSNA,6.45
